Source: patent US7888315B2, “Use of aspartic proteases in cosmetics and therapeutics” (L'Oreal, priority 2002, dated 2011)
Each block holds one molecule with its values, some of them ahead of it. [ ]: non-standard residue; d: D form. Nle = CCCC[C@H](N)C(=O)O

What was measured:
corneodesmosin = assay: Degradation of corneodesmosin extracted from human stratum corneum; type: biochemical; conditions: for % Residual corneodesmosin T24 h/T0*100 / Standardized corneodesmosin T24 h / Standardized corneodesmosin T0: stratum corneum acetone powder; for % Residual corneodesmosin T24 h/T0*100 / Standardized corneodesmosin T24 h: acetate buffer pH 5, 30° C.; for Standardized corneodesmosin T0: acetate buffer pH 5, T0
Procedure: Corneodesmosin is a marker for desquamation since it is involved in corneocyte cohesion at corneodesmosomes. The more the protein is degraded, the more significant is the detachment of the corneocytes. Corneodesmosin degradation is therefore a key step of desquamation.
The test used in this study therefore consists in following this degradation in the presence of the test substance.
Acetone powders are prepared using stripping varnish (Mehul B, Bernard D, Simonetti L, Bernard M A, Schmidt R: Identification and cloning of a new calmodulin-like protein from human epidermis. J Biol Chem 275: […], 2000), taken from the lower parts of the legs of volunteers with dry skin. Aliquot fractions of 2 mg of stratum corneum powder are introduced separately into Eppendorf tubes, and then immersed in the test solutions in a proportion of 100 μl/mg. The solutions are prepared in acetate buffer, pH 5. A control without protease is prepared in parallel in order to evaluate the natural degradation of corneodesmosin. For each test, three samples are prepared. The samples, trials and control, are incubated at 30° C., with stirring for 24 hours.
The proteins are extracted with complete Laemmli buffer. They are assayed by the Bradford method (Bio-Rad® kit). The concentration of each sample is adjusted so as to allow comparison of the samples. The polypeptides are separated by SDS-PAGE electrophoresis on a 15% acrylamide gel, and then transferred onto a PVDF membrane. Immunodetection with a solution of anti-corneodesmosin antibody used at 1/12 500 and of secondary antibody coupled to peroxidase makes it possible to visualize the corneodesmosin. The bands detected by chemiluminescence are quantified using the Quantity One® program from the company Biorad. The membranes are then stained with amido-black, and then scanned. In addition, the keratins, which are major proteins of corneocyte extracts, are quantified in order to verify the adjustment to 0.6 mg/ml of all the samples.
A positive control for degradation (+) is prepared using 5 mM of EDTA. A trial is carried out in the presence of 60 μg of activated SASPase. A negative control represents the natural degradation of corneodesmosin under the operating conditions of the test.

[1] = molecular target: T1, activated SASPase (SEQ ID NO: 6) (Homo sapiens, UniProt Q53RT3); assay: Effect of retropepsin inhibitors on the caseinolytic activity of the activated SASPase; type: biochemical; conditions: activated SASPase in 0.1 M acetate buffer pH 5.5 with DMSO, pre-incubated 1 hour at 4° C., Enzchek casein, 37° C., FIG. 3
T1 construct: GST (N, cleaved yes); made in house; host or cells: E. coli BL21 (DE3)
T1 sequence (Q53RT3 189-326): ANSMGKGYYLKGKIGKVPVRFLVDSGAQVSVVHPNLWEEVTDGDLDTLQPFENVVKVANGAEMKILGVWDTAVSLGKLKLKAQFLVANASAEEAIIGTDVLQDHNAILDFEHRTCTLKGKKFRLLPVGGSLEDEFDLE
Procedure: 10 μl of activated SASPase (SEQ ID NO: 6) that have been autoactivated (approximately 3 mg/ml) are added to 200 μl of 0.1 M acetate buffer, pH 5.5, containing 20 μl of DMSO with retropepsin inhibitors. A control assay is carried out under the same conditions in the absence of inhibitor.
The mixture is pre-incubated at 4° C. for 1 hour, and the substrate, casein, sold under the name Enzchek® by the company Molecular Probes, is then added in sufficient amount to obtain the concentration recommended by the supplier, the solutions having been heated to 37° C. beforehand.
The casein hydrolysis is followed by measuring the fluorescence on a Biolumin® plate reader sold by the company Molecular Probes, using the excitation/emission couple: 485/535 nm.

SASPase (GST-C27) = molecular target: T2, SASPase (GST-C27) (Homo sapiens, UniProt Q53RT3); assay: Hydrolysis of quenched Abz/(NO2)Tyr peptide substrates by the SASPase; type: biochemical
T2 construct: made in house; host or cells: E. coli BL21 (DE3)
T2 sequence (Q53RT3 85-343): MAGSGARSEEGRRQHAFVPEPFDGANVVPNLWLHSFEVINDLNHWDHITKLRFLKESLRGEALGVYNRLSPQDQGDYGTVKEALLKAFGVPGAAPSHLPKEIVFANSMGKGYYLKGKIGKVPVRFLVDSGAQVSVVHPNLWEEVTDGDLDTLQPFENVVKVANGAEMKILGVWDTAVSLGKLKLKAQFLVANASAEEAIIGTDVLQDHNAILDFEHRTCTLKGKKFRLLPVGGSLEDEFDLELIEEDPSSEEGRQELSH
Procedure: The peptide substrate considered (SEQ ID NO: 31, SEQ ID NO: 32, SEQ ID NO: 33, SEQ ID NO: 34 or SEQ ID NO: 35) quenched using the Abz/(NO2)Tyr fluorescent system is used at 100 μM in DMSO, and then 10 μl of this stock substrate solution are added per 100 μl of 0.1 M acetate buffer, pH 5.00.
10 μg of GST-C27 (fusion protein at 1 mg/ml in PBS) are added. Incubation is carried out at 37° C. The fluorescence is read at 340/450 nm on a Biolumin plate reader at various times.

[2] = system: SASPase C27 (autocleavage); assay: Autocleavage of the SASPase C27 and of its mutants (SDS-PAGE); type: biochemical, human; conditions: fusion protein in 1 M acetate buffer pH 4.5, 37° C., SDS-PAGE over time
Procedure: The SASPase sequence SEQ ID NO: 5 is modified at aspartic acid No. 212, i.e. on its potential active site. To do this, two oligonucleotides are synthesized such that amino acid 212 is substituted either to alanine (mutant A/D), or to glutamic acid (mutant E/D).
The mutated recombinant proteins are produced according to the same protocol as for the wild-type form, SASPase C27; (SEQ ID NO: 4).
Each recombinant protein produced in fusion protein form is then incubated in a 1 M acetate buffer, pH 4.5, at 37° C. Samples are taken over time and are analyzed by SDS-PAGE.

[3] = system: oxidized beta-chain of insulin; assay: Hydrolysis of the oxidized beta-chain of insulin followed by HPLC; type: biochemical
Procedure: The oxidized beta-chain of insulin (Sigma) is used as substrate. The concentration is 50 μg in 1.5 ml of 0.1 M acetate buffer, pH 5.0. 50 μl of 12 kD SASPase (SEQ ID NO: 6) (approximately 1 mg/ml) purified by gel filtration are added so as to initialize the hydrolysis. Controls without enzyme or without substrate are used. Over time (1 h to 24 h at 37° C.), HPLCs are performed in order to follow the hydrolysis. The peaks that appear rapidly correspond to the main hydrolysis sites and those that only appear after 24 h correspond to the secondary sites. The peaks are collected after they have been fractionated, and are N-terminal sequences (EDMAN sequencing, Pasteur Institute).

casein = assay: Influence of pH on the proteolytic activity of SASPase (Enzchek casein substrate); type: biochemical
Procedure: 10 μl of GST-SASPase Δ 1-84 fusion proteins (approximately 3 mg/ml) obtained in example II are incubated in 200 μl of 0.1 M acetate buffer, adjusted to various pH values in the presence of the casein substrate sold under the name Enzchek® by the company Molecular Probes, and used at the concentrations recommended by the supplier.
Each assay is repeated three times.
After incubation at 37° C. for 20 hours, the fluorescence is measured on a plate reader sold under the name Biolumin® by the company Molecular Probes, using the excitation/emission couple: 485/535 nm.

kinetics for casein hydrolysis compared with the control [1]: lower than the control
Molecule: Ac-Leu-Leu-Met-aldehyde [RP2]

kinetics for casein hydrolysis compared with the control [1]: significantly higher
Molecule: Ac-Leu-Leu-Nle-aldehyde (Ac-Leu-Leu-[Nle]-aldehyde) [RP3]

kinetics for casein hydrolysis compared with the control [1]: lower than the control
Molecule: Ac-Leu-Val-Phe-aldehyde [RP1]

Second part, the molecule before the results:

Molecule: O=C(O)CN(CCN(CC(=O)O)CC(=O)O)CC(=O)O [+control, EDTA, reference compound]
% Residual corneodesmosin T24 h/T0*100 (corneodesmosin; 24 hours): 84%
Standardized corneodesmosin T24 h (corneodesmosin; 24 hours): 26685
Standardized corneodesmosin T0 (corneodesmosin): 31657

Molecule: EFDLDLIEED (listed as Homo sapiens) [SEQ ID NO: 32]
effect of the peptide substrate on the SASPase (SASPase (GST-C27)): activator effect

Molecule: EFDLELIEED (listed as Homo sapiens) [SEQ ID NO: 31]
effect of the peptide substrate on the SASPase (SASPase (GST-C27)): activator effect
hydrolysis of the peptide substrate by the SASPase (SASPase (GST-C27); 0.1 M acetate buffer pH 5.00, 10 μg GST-C27, 37° C., fluorescence 340/450 nm, FIG. 5): effectively hydrolyzed

B1: GST-SASPase C27: recombinant fusion protein of glutathione S-transferase with truncated SASPase Δ 1-84 (SEQ ID NO: 4) (protein, listed as Homo Sapiens)
chain: MAGSGARSEEGRRQHAFVPEPFDGANVVPNLWLHSFEVINDLNHWDHITKLRFLKESLRGEALGVYNRLSPQDQGDYGTVKEALLKAFGVPGAAPSHLPKEIVFANSMGKGYYLKGKIGKVPVRFLVDSGAQVSVVHPNLWEEVTDGDLDTLQPFENVVKVANGAEMKILGVWDTAVSLGKLKLKAQFLVANASAEEAIIGTDVLQDHNAILDFEHRTCTLKGKKFRLLPVGGSLEDEFDLELIEEDPSSEEGRQELSH
autocleavage / autoactivation [2]: autocleavage

B2: (A/D): SASPase mutant, aspartic acid No. 212 substituted to alanine (protein, UniProt Q53RT3 191-326, looked up, variant D212A)
Retroviral-like aspartic …: SMGKGYYLKGKIGKVPVRFLVASGAQVSVVHPNLWEEVTDGDLDTLQPFENVVKVANGAEMKILGVWDTAVSLGKLKLKAQFLVANASAEEAIIGTDVLQDHNAILDFEHRTCTLKGKKFRLLPVGGSLEDEFDLE
autocleavage / autoactivation [2]: do not autoactivate

B3: (E/D): SASPase mutant, aspartic acid No. 212 substituted to glutamic acid (protein, UniProt Q53RT3 191-326, looked up, variant D212E)
Retroviral-like aspartic …: SMGKGYYLKGKIGKVPVRFLVESGAQVSVVHPNLWEEVTDGDLDTLQPFENVVKVANGAEMKILGVWDTAVSLGKLKLKAQFLVANASAEEAIIGTDVLQDHNAILDFEHRTCTLKGKKFRLLPVGGSLEDEFDLE
autocleavage / autoactivation [2]: do not autoactivate

B4: activated SASPase: truncated 12 kD activated form of the aspartic acid protease SASPase, sequence SEQ ID NO: 6 (protein, listed as Homo Sapiens)
chain: ANSMGKGYYLKGKIGKVPVRFLVDSGAQVSVVHPNLWEEVTDGDLDTLQPFENVVKVANGAEMKILGVWDTAVSLGKLKLKAQFLVANASAEEAIIGTDVLQDHNAILDFEHRTCTLKGKKFRLLPVGGSLEDEFDLE
insulin-degrading activity ([3]; 0.1 M acetate buffer pH 5.0, 37° C., 1 h to 24 h): capable of degrading insulin
percentage of residual corneodesmosin compared with the controls (corneodesmosin; 60 μg of activated SASPase, 24 hours): significant decrease
% Residual corneodesmosin T24 h/T0*100 (corneodesmosin; 24 hours): 75%
Standardized corneodesmosin T24 h (corneodesmosin; 24 hours): 24918
Standardized corneodesmosin T0 (corneodesmosin): 33107

B5: SASPase: novel aspartic acid protease from human keratinocytes, sequence SEQ ID NO: 5; in b201 and b239 the word covers the form tested (protein, listed as Homo Sapiens)
chain: MGSPGASLGIKKALQSEQATALPASAPAVSQPTAPAPSCLPKAGQVIPTLLREAPFSSVIAPTLLCGFLFLAWVAAEVPEESSRMAGSGARSEEGRRQHAFVPEPFDGANVVPNLWLHSFEVINDLNHWDHITKLRFLKESLRGEALGVYNRLSPQDQGDYGTVKEALLKAFGVPGAAPSHLPKEIVFANSMGKGYYLKGKIGKVPVRFLVDSGAQVSVVHPNLWEEVTDGDLDTLQPFENVVKVANGAEMKILGVWDTAVSLGKLKLKAQFLVANASAEEAIIGTDVLQDHNAILDFEHRTCTLKGKKFRLLPVGGSLEDEFDLELIEEDPSSEEGRQELSH
insulin-degrading activity after heat denaturation ([3]; heat denaturation 95° C., 10 min): abolishes its insulin-degrading activity
activity in phosphate buffer (casein; 0.1 M phosphate buffer of pH 6 to 7.5, assays not shown): only a weak residual activity
optimal pH of enzymatic activity (casein; GST-SASPase Δ 1-84 fusion protein, 0.1 M acetate buffer, 37° C., 20 hours, FIG. 2): 5 pH
